Assay [1] has as its target recombinant dimeric (β15-66)2 fragment. Put plainly: ELISA. (ELISA stands for enzyme-linked immunosorbent assay.)
The target in assay [2] is fibrin (β15-66)2 15-66 (Homo sapiens) (UniProt P02675). Kind of assay: SPR. Particulars: cited from earlier work.
In assay [3] the target is VE-cad(1-5) fragment (human). Kind of assay: SPR.
Assay [4] deals with VE-cad(3)His fragment (human). Kind of assay: SPR. On the technique in general: In SPR one partner is held on a chip, and binding of the other changes the refractive index at the surface.
Assay [5] deals with VE-cad(3)His fragment (human). Put plainly: SPR. The source holds these as a separate data set.
Assay [6] deals with VE-cad(1-5) fragment (human). Kind of assay: SPR. The source holds these as a separate data set.
In assay [7] the target is VE-cad(3)His fragment (human). Kind of assay: SPR. The source holds these as a separate data set.

Read-outs that look alike come from different tables or passages of the source.

fibrin (β15-66)2 15-66 (Homo sapiens), sequence (P02675 15-66): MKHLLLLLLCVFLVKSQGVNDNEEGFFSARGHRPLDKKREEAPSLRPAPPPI
VE-cadherin VE-cad(1-4)His EC1-4, sequence (P33151 48-477): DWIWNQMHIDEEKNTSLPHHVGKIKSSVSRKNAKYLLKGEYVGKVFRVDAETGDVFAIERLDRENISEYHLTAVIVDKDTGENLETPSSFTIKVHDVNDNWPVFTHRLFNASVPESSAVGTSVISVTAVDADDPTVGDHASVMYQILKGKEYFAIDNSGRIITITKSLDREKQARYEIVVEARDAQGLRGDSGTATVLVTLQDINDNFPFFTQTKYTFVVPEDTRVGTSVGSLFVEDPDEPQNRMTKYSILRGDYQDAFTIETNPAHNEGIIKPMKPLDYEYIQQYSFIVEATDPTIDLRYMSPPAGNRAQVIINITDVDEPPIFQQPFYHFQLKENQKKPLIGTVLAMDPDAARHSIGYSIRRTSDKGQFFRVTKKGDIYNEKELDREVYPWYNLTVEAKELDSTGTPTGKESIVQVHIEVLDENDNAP

As to “VE-cad(2-3) fragment (domain or fragment)”, the Kd in assay [1] is 27 nM.
On to “VE-cad(2-4) fragment (domain or fragment)”, for which, in assay [1], the Kd worked out at 32 nM.
Consider “VE-cadherin VE-cad(1-4)His EC1-4 (from UniProt P33151)”, for which the Kd in assay [2] is 80 nM.
In the case of “recombinant dimeric (β15-66)2 fragment (domain or fragment)”, the Kd in assay [3] was 82 nM; in assay [4] it was 90 nM; in assay [5], 89 nM; in assay [6] it was 76.7 nM; in assay [7] it was 91 nM. Besides, the kon worked out at 678000 M⁻¹ s⁻¹ in assay [6] and 189000 M⁻¹ s⁻¹ in assay [7]. The substance further showed a koff in assay [7] of 0.0172 s⁻¹.

For orientation: Kd means the equilibrium constant for the complex coming apart. For orientation: kon means a measure of how fast the partners come together. The low end stands for slow association, the high end for fast association. For orientation: koff means the rate constant with which the complex falls apart.

The values are drawn from publication PMC3307134.
